This is an account of results in the supplement of paper PMC9112550, “Optimization of the antimicrobial peptide Bac7 by deep mutational scanning” (BMC Biology, 2022).
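Also: peptides expressed intracellularly from a pBAD plasmid library in pooled LB shake-flask culture, induced with 0.3% L-arabinose, DNA abundance read by NGS, three biological replicates, DESeq2 with apeglm shrinkage.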

The data set concerns Escherichia coli TOP10. The data set can be described thus: shrunken log2 fold change of peptide-encoding DNA abundance (4.5 h post-induction vs induction); higher = less antimicrobial activity (less host growth inhibition). The conditions noted are these: time post-induction: 4.5 h; library: site-saturation at positions 5, 18, 19, 20.
As for RRIRDRPPRLPRPRPRPRTSPRP, the “shrunken log2 fold change” value was 0.353.

With RRIRFRPPRLPRPRPRPCAVPRP, the “shrunken log2 fold change” value is -0.46.

With RRIRNRPPRLPRPRPRPENIPRP, the “shrunken log2 fold change” value is -0.435.

As to RRIRQRPPRLPRPRPRPDDRPRP, the “shrunken log2 fold change” value is -0.000777.

As for RRIRERPPRLPRPRPRPTACPRP, the “shrunken log2 fold change” value was -0.134.

For the sequence RRIRPRPPRLPRPRPRPAAVPRP, the “shrunken log2 fold change” value amounted to 0.41.

For RRIRARPPRLPRPRPRPHCNPRP, the “shrunken log2 fold change” value was 0.717.

For the sequence RRIRPRPPRLPRPRPRPCSHPRP, the “shrunken log2 fold change” value is -0.0663.

Consider RRIRGRPPRLPRPRPRPNYPPRP, for which the “shrunken log2 fold change” value amounted to 0.0611.

Turning to RRIRARPPRLPRPRPRPGNWPRP, the “shrunken log2 fold change” value came out at 0.346.

For the sequence RRIRRRPPRLPRPRPRPNQSPRP, the “shrunken log2 fold change” value was -0.13.

As for RRIRFRPPRLPRPRPRPKRSPRP, the “shrunken log2 fold change” value turned out to be 1.12.

Regarding RRIRSRPPRLPRPRPRPFQLPRP, the “shrunken log2 fold change” value is -0.0513.

With RRIRHRPPRLPRPRPRPFQHPRP, the “shrunken log2 fold change” value is -0.0182.

With RRIRNRPPRLPRPRPRPNMRPRP, the “shrunken log2 fold change” value came out at 0.23.

Regarding RRIRGRPPRLPRPRPRPQCDPRP, the “shrunken log2 fold change” value came out at 0.479.

As to RRIRGRPPRLPRPRPRPQVPPRP, the “shrunken log2 fold change” value is -0.0856.

Consider RRIRIRPPRLPRPRPRPHWCPRP, for which the “shrunken log2 fold change” value amounted to 0.164.

Consider RRIRIRPPRLPRPRPRPECWPRP, for which the “shrunken log2 fold change” value worked out at 0.202.

Consider RRIRSRPPRLPRPRPRPQVKPRP, for which the “shrunken log2 fold change” value was -0.146.

For the sequence RRIRERPPRLPRPRPRPTTDPRP, the “shrunken log2 fold change” value was -0.148.

With RRIRMRPPRLPRPRPRPWVSPRP, the “shrunken log2 fold change” value was -0.0423.

RRIRSRPPRLPRPRPRPHPIPRP: the “shrunken log2 fold change” value was -0.214.

With RRIRFRPPRLPRPRPRPNPNPRP, the “shrunken log2 fold change” value is -0.168.

With RRIRMRPPRLPRPRPRPYPSPRP, the “shrunken log2 fold change” value is -0.0577.

RRIRWRPPRLPRPRPRPFFKPRP: the “shrunken log2 fold change” value was -0.0879.

As for RRIRTRPPRLPRPRPRPIRGPRP, the “shrunken log2 fold change” value is 0.074.

In the case of RRIRARPPRLPRPRPRPSWHPRP, the “shrunken log2 fold change” value amounted to 0.0482.

RRIRARPPRLPRPRPRPPWFPRP: the “shrunken log2 fold change” value amounted to 0.36.

Consider RRIRKRPPRLPRPRPRPVYVPRP, for which the “shrunken log2 fold change” value was -0.0394.

Consider RRIRNRPPRLPRPRPRPLHSPRP, for which the “shrunken log2 fold change” value is -0.16.

Turning to RRIRERPPRLPRPRPRPSTDPRP, the “shrunken log2 fold change” value was -0.332.

As to RRIRYRPPRLPRPRPRPNVWPRP, the “shrunken log2 fold change” value is -0.00356.

As to RRIRERPPRLPRPRPRPKEPPRP, the “shrunken log2 fold change” value worked out at 0.131.

Consider RRIRARPPRLPRPRPRPSMGPRP, for which the “shrunken log2 fold change” value is -0.0314.

Consider RRIRMRPPRLPRPRPRPNNHPRP, for which the “shrunken log2 fold change” value is -0.178.

RRIRTRPPRLPRPRPRPCEYPRP: the “shrunken log2 fold change” value was -0.0254.

Consider RRIRLRPPRLPRPRPRPVDQPRP, for which the “shrunken log2 fold change” value worked out at 0.194.

Consider RRIRLRPPRLPRPRPRPLVIPRP, for which the “shrunken log2 fold change” value is -0.33.

Take RRIRRRPPRLPRPRPRPTTDPRP: the “shrunken log2 fold change” value came to 0.647.

On to RRIRYRPPRLPRPRPRPGQQPRP, for which the “shrunken log2 fold change” value stood at 0.0541.

In the case of RRIRSRPPRLPRPRPRPLNEPRP, the “shrunken log2 fold change” value is -0.177.

Take RRIRKRPPRLPRPRPRPRGLPRP: the “shrunken log2 fold change” value was 0.41.

Take RRIRHRPPRLPRPRPRPRMMPRP: the “shrunken log2 fold change” value is -0.0987.

Consider RRIRARPPRLPRPRPRPPMKPRP, for which the “shrunken log2 fold change” value is 0.303.

For RRIRQRPPRLPRPRPRPEKTPRP, the “shrunken log2 fold change” value is -0.0176.

Consider RRIRTRPPRLPRPRPRPKPDPRP, for which the “shrunken log2 fold change” value was determined as 0.214.

As for RRIRARPPRLPRPRPRPKEMPRP, the “shrunken log2 fold change” value stood at 0.324.

As for RRIRGRPPRLPRPRPRPTNEPRP, the “shrunken log2 fold change” value stood at 0.46.

In the case of RRIRARPPRLPRPRPRPLMAPRP, the “shrunken log2 fold change” value is 0.554.

As to RRIRTRPPRLPRPRPRPKNNPRP, the “shrunken log2 fold change” value is -0.483.

For RRIRKRPPRLPRPRPRPSICPRP, the “shrunken log2 fold change” value was 0.242.

Regarding RRIRHRPPRLPRPRPRPQGNPRP, the “shrunken log2 fold change” value is -0.168.

On to RRIRHRPPRLPRPRPRPVWEPRP, for which the “shrunken log2 fold change” value is 0.107.

As to RRIRRRPPRLPRPRPRPMRFPRP, the “shrunken log2 fold change” value was 1.1.

For RRIRSRPPRLPRPRPRPISMPRP, the “shrunken log2 fold change” value is -0.145.

As to RRIRVRPPRLPRPRPRPPNDPRP, the “shrunken log2 fold change” value was -0.17.

Consider RRIRGRPPRLPRPRPRPNPVPRP, for which the “shrunken log2 fold change” value stood at 0.145.

On to RRIRTRPPRLPRPRPRPWDAPRP, for which the “shrunken log2 fold change” value stood at 0.125.

In the case of RRIRVRPPRLPRPRPRPLIDPRP, the “shrunken log2 fold change” value came out at 0.119.

As to RRIRTRPPRLPRPRPRPLNIPRP, the “shrunken log2 fold change” value is -0.36.

Turning to RRIRIRPPRLPRPRPRPLLPPRP, the “shrunken log2 fold change” value is -0.0454.

In the case of RRIRNRPPRLPRPRPRPHIAPRP, the “shrunken log2 fold change” value is -0.621.

On to RRIRIRPPRLPRPRPRPFLHPRP, for which the “shrunken log2 fold change” value was -0.787.

Regarding RRIRIRPPRLPRPRPRPTCCPRP, the “shrunken log2 fold change” value was 0.111.

Consider RRIRIRPPRLPRPRPRPPCLPRP, for which the “shrunken log2 fold change” value was -0.122.

Regarding RRIRERPPRLPRPRPRPFGTPRP, the “shrunken log2 fold change” value was -0.135.

Regarding RRIRFRPPRLPRPRPRPATHPRP, the “shrunken log2 fold change” value was determined as 0.167.

On to RRIRIRPPRLPRPRPRPGQCPRP, for which the “shrunken log2 fold change” value is -0.13.

Take RRIRVRPPRLPRPRPRPHVAPRP: the “shrunken log2 fold change” value was -0.0516.

As for RRIRFRPPRLPRPRPRPTNIPRP, the “shrunken log2 fold change” value is -0.959.

Turning to RRIRSRPPRLPRPRPRPQWKPRP, the “shrunken log2 fold change” value was -0.0984.

With RRIRTRPPRLPRPRPRPIMFPRP, the “shrunken log2 fold change” value was -0.937.

As to RRIRRRPPRLPRPRPRPMCAPRP, the “shrunken log2 fold change” value is 0.193.

Turning to RRIRARPPRLPRPRPRPVVRPRP, the “shrunken log2 fold change” value came to 0.481.

Regarding RRIRDRPPRLPRPRPRPVFCPRP, the “shrunken log2 fold change” value is 0.0325.

Turning to RRIRWRPPRLPRPRPRPNNWPRP, the “shrunken log2 fold change” value is -0.0483.

In the case of RRIRRRPPRLPRPRPRPGAWPRP, the “shrunken log2 fold change” value was -9.3e-05.

Consider RRIRMRPPRLPRPRPRPTTEPRP, for which the “shrunken log2 fold change” value turned out to be 0.897.

As to RRIRWRPPRLPRPRPRPLWGPRP, the “shrunken log2 fold change” value was found to be 0.08.

For RRIRQRPPRLPRPRPRPNNIPRP, the “shrunken log2 fold change” value was -0.732.

On to RRIRPRPPRLPRPRPRPTVHPRP, for which the “shrunken log2 fold change” value was -0.0233.

In the case of RRIRPRPPRLPRPRPRPMLAPRP, the “shrunken log2 fold change” value amounted to 0.281.

As for RRIRPRPPRLPRPRPRPPHNPRP, the “shrunken log2 fold change” value was 0.242.

With RRIRGRPPRLPRPRPRPWNRPRP, the “shrunken log2 fold change” value was -0.0647.

As for RRIRKRPPRLPRPRPRPKAFPRP, the “shrunken log2 fold change” value amounted to 0.0156.

Regarding RRIRTRPPRLPRPRPRPSYVPRP, the “shrunken log2 fold change” value is -0.305.

As to RRIRCRPPRLPRPRPRPVQFPRP, the “shrunken log2 fold change” value was determined as 0.13.

As to RRIRARPPRLPRPRPRPINVPRP, the “shrunken log2 fold change” value was -0.0118.

On to RRIRERPPRLPRPRPRPKQYPRP, for which the “shrunken log2 fold change” value is -0.292.

RRIRCRPPRLPRPRPRPDPLPRP: the “shrunken log2 fold change” value was determined as 0.00869.

As to RRIRWRPPRLPRPRPRPDVFPRP, the “shrunken log2 fold change” value stood at 0.019.

With RRIRHRPPRLPRPRPRPIQMPRP, the “shrunken log2 fold change” value is -0.00723.

As to RRIRNRPPRLPRPRPRPYYTPRP, the “shrunken log2 fold change” value is -1.27.

As for RRIRMRPPRLPRPRPRPTPRPRP, the “shrunken log2 fold change” value was 1.46.

Regarding RRIRMRPPRLPRPRPRPNINPRP, the “shrunken log2 fold change” value was -0.356.

In the case of RRIRCRPPRLPRPRPRPTVDPRP, the “shrunken log2 fold change” value came out at 0.337.

On to RRIRCRPPRLPRPRPRPSAAPRP, for which the “shrunken log2 fold change” value turned out to be 0.386.

Regarding RRIRRRPPRLPRPRPRPYDMPRP, the “shrunken log2 fold change” value was -0.532.

Take RRIRGRPPRLPRPRPRPEEIPRP: the “shrunken log2 fold change” value turned out to be 0.842.

As to RRIRGRPPRLPRPRPRPKLFPRP, the “shrunken log2 fold change” value was determined as 0.75.

RRIRVRPPRLPRPRPRPQDHPRP: the “shrunken log2 fold change” value was -0.253.

For the sequence RRIRKRPPRLPRPRPRPSDRPRP, the “shrunken log2 fold change” value turned out to be 0.0691.

On to RRIRARPPRLPRPRPRPMAFPRP, for which the “shrunken log2 fold change” value is 0.0104.

Regarding RRIRDRPPRLPRPRPRPEMKPRP, the “shrunken log2 fold change” value was found to be 0.0494.

In the case of RRIRVRPPRLPRPRPRPWMTPRP, the “shrunken log2 fold change” value is -0.0714.

As for RRIRRRPPRLPRPRPRPKHLPRP, the “shrunken log2 fold change” value amounted to 0.0709.

With RRIRERPPRLPRPRPRPGCKPRP, the “shrunken log2 fold change” value turned out to be 0.0591.

For RRIRIRPPRLPRPRPRPIIDPRP, the “shrunken log2 fold change” value was -0.372.

For the sequence RRIRPRPPRLPRPRPRPSSTPRP, the “shrunken log2 fold change” value is -0.315.

Take RRIRDRPPRLPRPRPRPCAKPRP: the “shrunken log2 fold change” value stood at 0.244.

For the sequence RRIRDRPPRLPRPRPRPFYKPRP, the “shrunken log2 fold change” value was -0.421.

In the case of RRIRARPPRLPRPRPRPPILPRP, the “shrunken log2 fold change” value was -0.261.

For the sequence RRIRFRPPRLPRPRPRPPPFPRP, the “shrunken log2 fold change” value came to 0.608.

As to RRIRDRPPRLPRPRPRPNKDPRP, the “shrunken log2 fold change” value was -0.951.

In the case of RRIRIRPPRLPRPRPRPDYGPRP, the “shrunken log2 fold change” value was -0.117.

In the case of RRIRSRPPRLPRPRPRPEKHPRP, the “shrunken log2 fold change” value is -0.211.

Regarding RRIRVRPPRLPRPRPRPPIFPRP, the “shrunken log2 fold change” value is -0.067.

As to RRIRGRPPRLPRPRPRPANPPRP, the “shrunken log2 fold change” value came to 0.476.

Regarding RRIRSRPPRLPRPRPRPCYPPRP, the “shrunken log2 fold change” value is -0.264.

Take RRIRQRPPRLPRPRPRPHHHPRP: the “shrunken log2 fold change” value was -0.403.

Consider RRIRPRPPRLPRPRPRPDNWPRP, for which the “shrunken log2 fold change” value is -0.121.

RRIRWRPPRLPRPRPRPLCGPRP: the “shrunken log2 fold change” value was 1.71.

For RRIRMRPPRLPRPRPRPVDRPRP, the “shrunken log2 fold change” value came to 0.278.

Regarding RRIRARPPRLPRPRPRPYIKPRP, the “shrunken log2 fold change” value is -1.17.
